In article PMC9445664, “A transcription factor TaMYB5 modulates leaf rolling in wheat”:

Columns and labels:
TaMYB5 (GST-TaMYB5) [1] = target: T1, TaMYB5 (GST-TaMYB5) (Triticum aestivum, UniProt A0A3B6ELG7 1-265); assay: competition; EMSA; unlabeled mutant probe against biotin-labeled N1; LightShift Chemiluminescent EMSA Kit (Thermo); buffer, salt, pH and temperature not stated; conditions: protein: recombinant; tags: N-terminal GST; blunt
TaMYB5 (GST-TaMYB5) [2] = target: T1, TaMYB5 (GST-TaMYB5); assay: EMSA; unlabeled N1 competes; LightShift Chemiluminescent EMSA Kit (Thermo); buffer, salt, pH and temperature not stated; conditions: protein: recombinant; tags: N-terminal GST; label: biotin (labeled probe); blunt

T1 sequence (A0A3B6ELG7 entry or part of it): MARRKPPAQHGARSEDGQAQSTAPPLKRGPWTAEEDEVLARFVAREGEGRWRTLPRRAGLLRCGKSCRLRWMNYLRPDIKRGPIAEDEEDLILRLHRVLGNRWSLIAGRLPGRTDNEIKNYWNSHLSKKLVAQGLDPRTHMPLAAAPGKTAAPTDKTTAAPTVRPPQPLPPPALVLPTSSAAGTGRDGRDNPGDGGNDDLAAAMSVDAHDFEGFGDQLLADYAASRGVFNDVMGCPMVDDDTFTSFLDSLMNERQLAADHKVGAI

| Binder | binding result (TaMYB5 (GST-TaMYB5) [1]) | binding result (TaMYB5 (GST-TaMYB5) [2]) |
| --- | --- | --- |
| mutant 3xAC probe (dsDNA) DNA 1: AGTCCAAATATTGCCAAATATTGCCAAATATTGCTGTT DNA 2: AACAGCAATATTTGGCAATATTTGGCAATATTTGGACT | no binding | – |
| 3xAC probe (AC box of TaNRL1 promoter) (dsDNA) DNA 1: AGTCCACCTAACGCCACCTAACGCCACCTAACGCTGTT DNA 2: AACAGCGTTAGGTGGCGTTAGGTGGCGTTAGGTGGACT | – | binds |
